Measured values from US20150098955A1 (VIELA BIO, published 2015).

T1: Murine CD40L (form not stated) (murine, UniProt P27548 112-260, limits assumed)
T1 construct: also called MuCD40L
T1 sequence (looked up): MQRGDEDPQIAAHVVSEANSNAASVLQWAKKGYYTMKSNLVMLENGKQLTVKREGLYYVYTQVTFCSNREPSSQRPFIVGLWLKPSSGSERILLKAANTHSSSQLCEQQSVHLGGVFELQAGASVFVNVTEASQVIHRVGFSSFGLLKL


How the values were obtained:
[1] = biological target: T1, Murine CD40L (form not stated); test: biosensor competition: inhibition of murine CD40L binding to immobilized murine CD40 receptor
[2] = biological target: Murine CD40L on cells (D10.G4 / D10G4.1 cells; activated murine T cells) (murine) (UniProt P27548); test: cell-based or functional assay
[3] = biological target: Murine MegaCD40L (Axxora, cat. ALX522120) (murine) (UniProt P27548); test: cell-based or functional assay
[4] = biological target: T1, Murine CD40L (form not stated); test: method not stated (figure legend)

Row | Binder | IC50 [1] | IC50, inhibition of CD86 up regulation on CD19+ B cells (PBMC stimulated with D10.G4 cells) [2] | fold increase in potency in the PBMC assay over M13 [2] | IC50, neutralization of murine CD40L-induced NFκB activity (luciferase reporter cells) [3] | fold affinity improvement over M13 [4]
1 | Clone M13 (murine CD40L-specific Tn3 scaffold) (designed binder, also called monovalent M13) IEVKDVTDTTALITWHDAFGYDFGCELTYGIKDVPGDRTTIDLPDHFHNYSIGNLKPDTEYEVSLICANDHGFDSNPAKETFTT | 71 nM | – | – | – | –
2 | Clone M31 (affinity optimized variant of M13, murine CD40L-specific) (designed binder) IEVKDVTDTTALITWHDPSGYDFWCELTYGIKDVPGDRTTIDLPDHFHNYSIGNLKPDTEYEVSLICANDHGFDSYPAKETFTT | – | 1.5 nM | 20 fold | 1.6 nM | ~20 fold
